T1: Recombinant Human IL-17 (human, UniProt Q16552 20-155, limits assumed)
T1 sequence (looked up): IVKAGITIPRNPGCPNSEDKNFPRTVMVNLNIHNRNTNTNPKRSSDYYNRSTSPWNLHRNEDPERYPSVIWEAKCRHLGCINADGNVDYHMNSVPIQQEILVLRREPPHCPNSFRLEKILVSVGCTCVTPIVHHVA


Key:
Recombinant Human IL-13 = Recombinant Human IL-13 (human, UniProt P35225 35-146, limits assumed); assay: cell-based or functional assay
Recombinant Human IL-17 = target: T1, Recombinant Human IL-17; assay: cell-based or functional assay

Chain of Recombinant Human IL-13 (P35225 35-146 limits assumed): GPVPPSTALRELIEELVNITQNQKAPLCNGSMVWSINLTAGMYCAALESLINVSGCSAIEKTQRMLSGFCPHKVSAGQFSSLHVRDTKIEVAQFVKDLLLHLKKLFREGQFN

Row | Binder | N-Terminal VD IL13 Neutralization Assay IC50 (Recombinant Human IL-13) [nM] | C-Terminal VD IL17 Neutralization Assay IC50 (Recombinant Human IL-17) [nM] | C-Terminal VD IL13 Neutralization Assay IC50 (Recombinant Human IL-13) [nM] | N-Terminal VD IL17 Neutralization Assay IC50 (Recombinant Human IL-17) [nM]
1 | DVD2148 (bispecific antibody) VH: EVTLRESGPGLVKPTQTLTLTCTLYGFSLSTSDMGVDWIRQPPGKGLEWLAHIWWDDVKRYNPALKSRLTISKDTSKNQVVLKLTSVDPVDTATYYCARTVSSGYIYYAMDYWGQGTLVTVSSASTKGPEVQLVQSGAEVKKPGSSVKVSCKASGYTFTDYEIHWVRQAPGQGLEWMGVNDPESGGTFYNQKFDGRVTLTADESTSTAYMELSSLRSEDTAVYYCTRYSKWDSFDGMDYWGQGTTVTVSS VL: DIQMTQSPSSLSASVGDRVTISCRASQDIRNYLNWYQQKPGKAPKLLIFYTSKLHSGVPSRFSGSGSGTDYTLTISSLQPEDIATYYCQQGLTPPLTFGGGTKVEIKRTVAAPDIQMTQSPSSLSASVGDRVTITCRASSGIISYIDWFQQKPGKAPKRLIYATFDLASGVPSRFSGSGSGTDYTLTISSLQPEDFATYYCRQVGSYPETFGQGTKLEIKR | 0.054 | 0.0116 | – | –
2 | DVD2150 (bispecific antibody) VH: EVTLRESGPGLVKPTQTLTLTCTLYGFSLSTSDMGVDWIRQPPGKGLEWLAHIWWDDVKRYNPALKSRLTISKDTSKNQVVLKLTSVDPVDTATYYCARTVSSGYIYYAMDYWGQGTLVTVSSASTKGPEVQLVQSGAEVKKPGSSVKVSCKASGYTFTDYEIHWVRQAPGQGLEWMGVNDPESGGTFYNQKFDGRVTLTADESTSTAYMELSSLRSEDTAVYYCTRYSKWDSFDGMDYWGQGTTVTVSS VL: DIQMTQSPSSLSASVGDRVTISCRASQDIRNYLNWYQQKPGKAPKLLIFYTSKLHSGVPSRFSGSGSGTDYTLTISSLQPEDIATYYCQQGLTPPLTFGGGTKVEIKRTVAAPSVFIFPPDIQMTQSPSSLSASVGDRVTITCRASSGIISYIDWFQQKPGKAPKRLIYATFDLASGVPSRFSGSGSGTDYTLTISSLQPEDFATYYCRQVGSYPETFGQGTKLEIKR | 0.099 | 0.004 | – | –
3 | DVD2170 (bispecific antibody) VH: EVQLVQSGAEVKKPGASVKVSCKASGYTFTTYGVSWVRQAPGQGLEWMGEIYPGNYNTYYNEKFRGRVTMTTDTSTSTAYMELRSLRSDDTAVYYCARWRTSYFSDYGYFDYWGQGTTVTVSSASTKGPSVFPLAPEVQLVQSGAEVKKPGSSVKVSCKASGYTFTDYEIHWVRQAPGQGLEWMGVNDPESGGTFYNQKFDGRVTLTADESTSTAYMELSSLRSEDTAVYYCTRYSKWDSFDGMDYWGQGTTVTVSS VL: DVVMTQSPLSLPVTLGQPASISCRSSQSLVHSHGNTYLHWYQQRPGQSPRLLIYTVSNRFSGVPDRFSGSGSGTDFTLKISRVEAEDVGVYYCSQSTHVPYTFGGGTKVEIKRTVAAPDIQMTQSPSSLSASVGDRVTITCRASSGIISYIDWFQQKPGKAPKRLIYATFDLASGVPSRFSGSGSGTDYTLTISSLQPEDFATYYCRQVGSYPETFGQGTKLEIKR | 0.106 | 0.0053 | – | –
4 | DVD2149 (bispecific antibody) VH: EVQLVQSGAEVKKPGSSVKVSCKASGYTFTDYEIHWVRQAPGQGLEWMGVNDPESGGTFYNQKFDGRVTLTADESTSTAYMELSSLRSEDTAVYYCTRYSKWDSFDGMDYWGQGTTVTVSSASTKGPEVTLRESGPGLVKPTQTLTLTCTLYGFSLSTSDMGVDWIRQPPGKGLEWLAHIWWDDVKRYNPALKSRLTISKDTSKNQVVLKLTSVDPVDTATYYCARTVSSGYIYYAMDYWGQGTLVTVSS VL: DIQMTQSPSSLSASVGDRVTITCRASSGIISYIDWFQQKPGKAPKRLIYATFDLASGVPSRFSGSGSGTDYTLTISSLQPEDFATYYCRQVGSYPETFGQGTKLEIKRTVAAPDIQMTQSPSSLSASVGDRVTISCRASQDIRNYLNWYQQKPGKAPKLLIFYTSKLHSGVPSRFSGSGSGTDYTLTISSLQPEDIATYYCQQGLTPPLTFGGGTKVEIKR | – | – | 1.43 | 0.0028
5 | DVD2169 (bispecific antibody) VH: EVQLVQSGAEVKKPGSSVKVSCKASGYTFTDYEIHWVRQAPGQGLEWMGVNDPESGGTFYNQKFDGRVTLTADESTSTAYMELSSLRSEDTAVYYCTRYSKWDSFDGMDYWGQGTTVTVSSASTKGPEVQLVQSGAEVKKPGASVKVSCKASGYTFTTYGVSWVRQAPGQGLEWMGEIYPGNYNTYYNEKFRGRVTMTTDTSTSTAYMELRSLRSDDTAVYYCARWRTSYFSDYGYFDYWGQGTTVTVSS VL: DIQMTQSPSSLSASVGDRVTITCRASSGIISYIDWFQQKPGKAPKRLIYATFDLASGVPSRFSGSGSGTDYTLTISSLQPEDFATYYCRQVGSYPETFGQGTKLEIKRTVAAPSVFIFPPDVVMTQSPLSLPVTLGQPASISCRSSQSLVHSHGNTYLHWYQQRPGQSPRLLIYTVSNRFSGVPDRFSGSGSGTDFTLKISRVEAEDVGVYYCSQSTHVPYTFGGGTKVEIKR | – | – | 0.309 | 0.0021
6 | DVD2163 (bispecific antibody) VH: EVQLVQSGAEVKKPGESVKISCKASGGSFRSYGISWVRQAPGQGLEWMGGITHFFGITDYAQKFQGRVTITADESTTTAYMELSGLTSDDTAVYYCAREPNDFWNGYYDTHDFDSWGQGTTVTVSSASTKGPEVTLRESGPGLVKPTQTLTLTCTLYGFSLSTSDMGVDWIRQPPGKGLEWLAHIWWDDVKRYNPALKSRLTISKDTSKNQVVLKLTSVDPVDTATYYCARTVSSGYIYYAMDYWGQGTLVTVSS VL: EIVLTQSPDFQSVTPKEKVTITCRASQNIGSELHWYQQKPDQSPKLLIKYASHSISGVPSRFSGSGSGTDFTLTINGLEAEDAATYYCHQSDTLPHTFGQGTKVDIKRTVAAPSVFIFPPDIQMTQSPSSLSASVGDRVTISCRASQDIRNYLNWYQQKPGKAPKLLIFYTSKLHSGVPSRFSGSGSGTDYTLTISSLQPEDIATYYCQQGLTPPLTFGGGTKVEIKR | – | – | 0.195 | 0.0151

Results, then the binder that gave them:

Row | N-Terminal VD IL13 Neutralization Assay IC50 (Recombinant Human IL-13) [nM] | C-Terminal VD IL17 Neutralization Assay IC50 (Recombinant Human IL-17) [nM] | C-Terminal VD IL13 Neutralization Assay IC50 (Recombinant Human IL-13) [nM] | N-Terminal VD IL17 Neutralization Assay IC50 (Recombinant Human IL-17) [nM] | Binder
7 | 0.106 | 0.116 | – | – | DVD2176 (bispecific antibody) VH: EVQLVQSGAEVKKPGASVKVSCKASGYTFTTYGVSWVRQAPGQGLEWMGEIYPGNYNTYYNEKFRGRVTMTTDTSTSTAYMELRSLRSDDTAVYYCARWRTSYFSDYGYFDYWGQGTTVTVSSASTKGPSVFPLAPEVQLVQSGAEVKKPGSSVKVSCKASGGSFGGYGIGWVRQAPGQGLEWMGGITPFFGFADYAQKFQGRVTITADESTTTAYMELSGLTSDDTAVYYCARDPNEFWNGYYSTHDFDSWGQGTTVTVSS VL: DVVMTQSPLSLPVTLGQPASISCRSSQSLVHSHGNTYLHWYQQRPGQSPRLLIYTVSNRFSGVPDRFSGSGSGTDFTLKISRVEAEDVGVYYCSQSTHVPYTFGGGTKVEIKRTVAAPEIVLTQSPDFQSVTPKEKVTITCRASQDIGSELHWYQQKPDQPPKLLIKYASHSTSGVPSRFSGSGSGTDFTLTINGLEAEDAGTYYCHQTDSLPYTFGPGTKVDIKR
8 | 0.088 | 0.691 | – | – | DVD2178 (bispecific antibody) VH: EVQLVQSGAEVKKPGASVKVSCKASGYTFTTYGVSWVRQAPGQGLEWMGEIYPGNYNTYYNEKFRGRVTMTTDTSTSTAYMELRSLRSDDTAVYYCARWRTSYFSDYGYFDYWGQGTTVTVSSASTKGPEVQLVQSGAEVKKPGESVKISCKASGGSFRSYGISWVRQAPGQGLEWMGGITHFFGITDYAQKFQGRVTITADESTTTAYMELSGLTSDDTAVYYCAREPNDFWNGYYDTHDFDSWGQGTTVTVSS VL: DVVMTQSPLSLPVTLGQPASISCRSSQSLVHSHGNTYLHWYQQRPGQSPRLLIYTVSNRFSGVPDRFSGSGSGTDFTLKISRVEAEDVGVYYCSQSTHVPYTFGGGTKVEIKRTVAAPEIVLTQSPDFQSVTPKEKVTITCRASQNIGSELHWYQQKPDQSPKLLIKYASHSISGVPSRFSGSGSGTDFTLTINGLEAEDAATYYCHQSDTLPHTFGQGTKVDIKR
9 | 0.077 | 0.266 | – | – | DVD2182 (bispecific antibody) VH: EVQLVQSGAEVKKPGASVKVSCKASGYTFTTYGVSWVRQAPGQGLEWMGEIYPGNYNTYYNEKFRGRVTMTTDTSTSTAYMELRSLRSDDTAVYYCARWRTSYFSDYGYFDYWGQGTTVTVSSASTKGPSVFPLAPEVQLVQSGAEVKKPGESVKISCKASGGSFRSYGISWVRQAPGQGLEWMGGITHFFGITDYAQKFQGRVTITADESTTTAYMELSGLTSDDTAVYYCAREPNDFWNGYYDTHDFDSWGQGTTVTVSS VL: DVVMTQSPLSLPVTLGQPASISCRSSQSLVHSHGNTYLHWYQQRPGQSPRLLIYTVSNRFSGVPDRFSGSGSGTDFTLKISRVEAEDVGVYYCSQSTHVPYTFGGGTKVEIKRTVAAPEIVLTQSPDFQSVTPKEKVTITCRASQNIGSELHWYQQKPDQSPKLLIKYASHSISGVPSRFSGSGSGTDFTLTINGLEAEDAATYYCHQSDTLPHTFGQGTKVDIKR
10 | 0.121 | 0.405 | – | – | DVD2184 (bispecific antibody) VH: EVQLVQSGAEVKKPGASVKVSCKASGYTFTSYWMHWVRQAPGQGLEWIGNINPKGGSNIYNEKFQGRVTMTRDTSISTAYMELSRLRSDDTAVYYCARLDYFGDSFDLWGQGTTVTVSSASTKGPEVQLVQSGAEVKKPGSSVKVSCKASGYTFTDYEIHWVRQAPGQGLEWMGVNDPESGGTFYNQKFDGRVTLTADESTSTAYMELSSLRSEDTAVYYCTRYSKWDSFDGMDYWGQGTTVTVSS VL: DIQMTQSPSSLSASVGDRVTITCRASQGIRNYLNWYQQKPGKAPKLLIYYASNLEVGVPSRFSGSGSGTDYTLTISSLQPEDFATYYCQQDNRFPYTFGGGTKVEIKRTVAAPDIQMTQSPSSLSASVGDRVTITCRASSGIISYIDWFQQKPGKAPKRLIYATFDLASGVPSRFSGSGSGTDYTLTISSLQPEDFATYYCRQVGSYPETFGQGTKLEIKR
11 | 0.091 | 0.0567 | – | – | DVD2180 (bispecific antibody) VH: EVQLVQSGAEVKKPGASVKVSCKASGYTFTTYGVSWVRQAPGQGLEWMGEIYPGNYNTYYNEKFRGRVTMTTDTSTSTAYMELRSLRSDDTAVYYCARWRTSYFSDYGYFDYWGQGTTVTVSSASTKGPEVQLVQSGAEVKKPGESVKISCKASGGSFRSYGISWVRQAPGQGLEWMGGITHFFGITDYAQKFQGRVTITADESTTTAYMELSGLTSDDTAVYYCAREPNDFWNGYYDTHDFDSWGQGTTVTVSS VL: DVVMTQSPLSLPVTLGQPASISCRSSQSLVHSHGNTYLHWYQQRPGQSPRLLIYTVSNRFSGVPDRFSGSGSGTDFTLKISRVEAEDVGVYYCSQSTHVPYTFGGGTKVEIKRTVAAPSVFIFPPEIVLTQSPDFQSVTPKEKVTITCRASQNIGSELHWYQQKPDQSPKLLIKYASHSISGVPSRFSGSGSGTDFTLTINGLEAEDAATYYCHQSDTLPHTFGQGTKVDIKR
